Results taken from US20240368286A1 (SHANGHAI JMT BIO TECHNOLOGY, published 2024).
Numbering of substitutions follows the chain as printed. Like-named read-outs stand apart in the source and are kept apart here. Values belong to the binder of their own block, whether it stands above or below them.

Tests used:
[1] = molecular target: T1, Mouse GFRAL (mGFRAL) on HEK293 reporter cells with mouse RET (mouse, UniProt Q6SJE0 20-393); test: cell-based or functional assay
T1 sequence (looked up): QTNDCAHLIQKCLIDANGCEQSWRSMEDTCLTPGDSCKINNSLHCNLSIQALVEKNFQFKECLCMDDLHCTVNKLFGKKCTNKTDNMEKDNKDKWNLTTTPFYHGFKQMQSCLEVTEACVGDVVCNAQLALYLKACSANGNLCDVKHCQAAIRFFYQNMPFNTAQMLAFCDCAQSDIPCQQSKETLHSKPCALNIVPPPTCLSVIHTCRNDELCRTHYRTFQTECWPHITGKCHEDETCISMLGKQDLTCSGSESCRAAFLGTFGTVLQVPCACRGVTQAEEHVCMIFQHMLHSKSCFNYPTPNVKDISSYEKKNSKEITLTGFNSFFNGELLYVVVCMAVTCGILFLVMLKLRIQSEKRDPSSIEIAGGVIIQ

[2] = molecular target: T2, Human GFRAL (hGFRAL) on HEK293 reporter cells with human RET (human, UniProt Q6UXV0 19-394); test: cell-based or functional assay
T2 sequence (looked up): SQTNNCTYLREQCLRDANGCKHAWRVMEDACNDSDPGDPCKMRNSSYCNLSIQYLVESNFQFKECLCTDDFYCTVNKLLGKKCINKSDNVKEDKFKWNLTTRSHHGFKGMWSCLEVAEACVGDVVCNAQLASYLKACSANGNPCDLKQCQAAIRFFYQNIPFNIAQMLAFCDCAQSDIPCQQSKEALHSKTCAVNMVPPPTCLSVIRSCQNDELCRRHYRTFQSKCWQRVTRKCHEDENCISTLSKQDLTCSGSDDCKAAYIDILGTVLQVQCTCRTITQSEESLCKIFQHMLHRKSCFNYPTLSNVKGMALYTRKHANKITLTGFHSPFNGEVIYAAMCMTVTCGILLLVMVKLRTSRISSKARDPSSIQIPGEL

Human GFRAL-His protein = molecular target: T3, Human GFRAL-His protein (human, UniProt Q6UXV0 19-351); test: ELISA, antigen coated on plate, purified antibody titrated, HRP anti-mouse IgG detection
T3 construct: also called human GFRAL-His fusion protein; not shown: His tag
T3 sequence (looked up): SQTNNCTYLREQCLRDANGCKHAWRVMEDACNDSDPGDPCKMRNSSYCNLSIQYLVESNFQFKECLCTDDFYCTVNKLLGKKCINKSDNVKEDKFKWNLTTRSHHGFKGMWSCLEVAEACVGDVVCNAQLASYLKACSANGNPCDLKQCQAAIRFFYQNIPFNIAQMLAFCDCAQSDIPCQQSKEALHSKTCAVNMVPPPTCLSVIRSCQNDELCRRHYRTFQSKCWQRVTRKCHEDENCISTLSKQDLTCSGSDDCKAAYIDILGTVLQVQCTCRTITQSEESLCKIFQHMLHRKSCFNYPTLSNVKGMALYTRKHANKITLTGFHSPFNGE
Procedure: (§1) The ELISA assay had the following protocols. Human GFRAL-His protein, cynomolgus monkey GFRAL-His protein, or mouse GFRAL-Fc protein were coated on 96-well plates, and after blocking the wells with PBS/1% BSA solution, the hybridoma supernatant or purified antibodies were added to the reaction wells. After incubation for 1 hour at room temperature, HRP-labeled anti-mouse IgG (Fab region) antibody was added to the reaction wells to incubate for an additional hour at room temperature. After the substrate and stop solution were added successively, the OD₄₅₀ values were read. The OD₄₅₀ values were used to verify and assess the binding ability of the antibodies to the GFRAL proteins.

[3] = molecular target: Cynomolgus monkey GFRAL-His protein (cynomolgus monkey); test: as above
Procedure: as §1

[4] = molecular target: T1, Mouse GFRAL (mGFRAL) on HEK293 reporter …; test: cell-based or functional assay; remark: listed apart in the source
[5] = molecular target: T2, Human GFRAL (hGFRAL) on HEK293 reporter …; test: cell-based or functional assay; remark: listed apart in the source

IC50 (nM), luciferase reporter gene assay, Mouse GFRAL/mouse RET [1]: > 694 nM | IC50 (nM), luciferase reporter gene assay, Human GFRAL/human RET [2]: 7.04 nM | EC50 (Human GFRAL-His protein): 0.06 nM | EC50 [3]: 0.08 nM
B1: 33B12 (antibody, V domains shown)
VH: QVQLQQPGTELVKPGASVKLSCKASGYTFTRNWMHWLKQRPGQGLEWIGEIDPSDSYTHYNQKFKGKATLTVEMSSSTAYMQLRSLTSEDSAVYYCARVGNYDNGTDRLYAMDYWGQGTSVTVSS
VL: DIVLTQSPASLAVSLGQRATISCRASESVDNFGNTFLHWFRQKPGQPPKLLIYRASNLESGIPARFSGSGSRTDFTLTINPVEADDVATYYCQQNNEDPWTFGGGTKLEIK
notes: Murine hybridoma antibody, purified

IC50 (nM), luciferase reporter gene assay, Mouse GFRAL/mouse RET [1]: > 694 nM | IC50 (nM), luciferase reporter gene assay, Human GFRAL/human RET [2]: 5.67 nM | EC50 (Human GFRAL-His protein): 0.03 nM | EC50 [3]: 0.04 nM
B2: 82G8 (antibody, V domains shown)
VH: QVQLKESGPGLVAPSQSLSITCTVSGFSLTGHGVNWVRQPPGKGLEWLGMIWGDGYTDYNSALKSRLSISKDNSKSQVFLKMNSLQTDDTATYYCARDTYGRTYDYAMDYWGQGTSVTVSS
VL: B1 VL with T20A, F32Y, T35S, L37M, F40Y, R41Q, N95S, W100R
notes: as for B1

IC50 (nM), luciferase reporter gene assay, Mouse GFRAL/mouse RET [1]: > 694 nM | IC50 (nM), luciferase reporter gene assay, Human GFRAL/human RET [2]: 6.42 nM | EC50 (Human GFRAL-His protein): 0.03 nM | EC50 [3]: 0.03 nM
B3: 96C12 (antibody, V domains shown)
VH: RVQLRESGPGLVAPSQSLSITCTVSGFSLTGYSVNWVRQPPGKGLEWLGMIWGDGSTDYNSALKSRLSISKDNSKSQVFLKMNSLQTDDTARYYCARDRDYRYDGGYIMDSWGQGTSVTVSS
VL: B1 VL with A9G, T35S, F40Y, R41Q, I62V, N80S, N95S, W100R, K111R
notes: as for B1

IC50 (nM), luciferase reporter gene assay, Mouse GFRAL/mouse RET [1]: > 694 nM | IC50 (nM), luciferase reporter gene assay, Human GFRAL/human RET [2]: 6.89 nM | EC50 (Human GFRAL-His protein): 0.18 nM | EC50 [3]: 0.07 nM
B4: 36D1 (antibody, V domains shown)
VH: B1 VH with L11F, E73D, M74K, R84S, T106K
VL: B1 VL
notes: as for B1

IC50 (nM), luciferase reporter gene assay, Mouse GFRAL/mouse RET [4]: 1.4 nM | IC50 (nM), luciferase reporter gene assay, Human GFRAL/human RET [5]: 23.8 nM
B5: 2D4-mVH + mVL (antibody, V domains shown)
VH: EVNLVESGGGLVKPGGPLKLSCAASGFTFSSFVMSWVRQTPEKRLEWVASITSGGTTFYPDSVKGRFTISRDNARNILYLQMSNLRSGDTAMYYCARGPPQFSSLSMDYWGQGTSVTVSS
VL: DIVMTQSQKFMSTSVGDRITITCKASQNVGTAVSWFQQKPGQVPKLLIYSASNRYTGVPDRFTGSGSGTEFTLTISNIQSEDLADYFCQQYSSLFTFGSGTKLEIK

IC50 (nM), luciferase reporter gene assay, Mouse GFRAL/mouse RET [4]: 0.7 nM | IC50 (nM), luciferase reporter gene assay, Human GFRAL/human RET [5]: 8.3 nM
B6: 26D7H5eL5c (antibody, V domains shown)
VH: QVQLVQSGSELKKPGASVKVSCKVSGYTFTDYGMNWVRQAPGQGLEWVGWINTYTGEPTYADDFKDRFVFSLDTSVSTAYLQISSLKAEDTAVYYCARRYGYDAGIDAWGQGTTVTVSS
VL: DIVLTQSPASLAVSPGQRATITCRASESVDSYGNNLMHWYQQKPGQPPKLLIYLASYLESGVPARFSGSGSGTDFTLTINPVEANDTANYYCQQNNESPWTFGGGTKLEIK

IC50 (nM), luciferase reporter gene assay, Mouse GFRAL/mouse RET [4]: 0.4 nM | IC50 (nM), luciferase reporter gene assay, Human GFRAL/human RET [5]: 8.9 nM
B7: 26D7H5fL5c (antibody, V domains shown)
VH: B6 VH with V2I, V20I, T74A
VL: B6 VL

IC50 (nM), luciferase reporter gene assay, Mouse GFRAL/mouse RET [4]: 0.7 nM | IC50 (nM), luciferase reporter gene assay, Human GFRAL/human RET [5]: 8.7 nM
B8: 26D7-mVH + mVL (antibody, V domains shown)
VH: QIQLVQSGPELKKPGETVKISCKVSGYTFTDYGMNWVKQTPGKDLKWVGWINTYTGEPTYADDFKDRFAFSLEASASTAYLQINNLKNEDTATYFCARRYGYDAGIDCWGQGTTLTVSS
VL: B6 VL with D1N, A9P, P15L, T22S, G72R, N80D, N85D, T87A, N89T, S98D

IC50 (nM), luciferase reporter gene assay, Mouse GFRAL/mouse RET [4]: 1.4 nM | IC50 (nM), luciferase reporter gene assay, Human GFRAL/human RET [5]: 24.4 nM
B9: 2D4H6aL6b (antibody, V domains shown)
VH: EVQLVESGGGLVKPGGSLRLSCAASGFTFSSFVMSWVRQAPGKGLEWVASITSGGTTFYPESVRGRFTISRDNAKNTLYLQMSSLRAEDTAVYYCARGPPQFSSLSMDYWGQGTTVTVSS
VL: DIQMTQSPSSLSASVGDRVTITCKASQNVGTAVSWFQQKPGKAPKLLIYSASNRYTGVPSRFSGSGSGTDFTLTISSLQPEDFATYYCQQYSSLFTFGGGTKLEIK

IC50 (nM), luciferase reporter gene assay, Mouse GFRAL/mouse RET [4]: 1.3 nM | IC50 (nM), luciferase reporter gene assay, Human GFRAL/human RET [5]: 22.5 nM
B10: 2D4H6cL6c (antibody, V domains shown)
VH: B9 VH with E61D, R64K, K75R, T77I
VL: B9 VL with V19I, S60D

IC50 (nM), luciferase reporter gene assay, Mouse GFRAL/mouse RET [1]: > 694 nM | IC50 (nM), luciferase reporter gene assay, Human GFRAL/human RET [2]: 11.6 nM | EC50 (Human GFRAL-His protein): 0.07 nM | EC50 [3]: 0.08 nM
B11: 61G8 (antibody, V domains shown)
VH: QVQLKESGPGLVAPSQSLSITCTVSGFSLTGYGVNWVRQSPGKGLEWLGMIWGDGTTDYNSALKSRLTIRKDNSKSQVFLRMNSLQTDDTARYYCARDPKYNYGYAMDYWGQGTSVTVSS
VL: DIVLTQAPGSLAVSLGQRATISCRASESVDNFGNSFMHWYQQKPGQSPKLLIYRASNLESGIPARFSGSGSRTDFTLTINPVEADDVATYYCQQTNEEPYTFGGGTKLEIE
notes: as for B1

IC50 (nM), luciferase reporter gene assay, Mouse GFRAL/mouse RET [4]: 7.7 nM | IC50 (nM), luciferase reporter gene assay, Human GFRAL/human RET [5]: 2.6 nM
B12: 26D7H1aL2a (antibody, V domains shown)
VH: QVQLVQSGAEVKKPGASVKVSCKASGYTFTDYGMNWVRQAPGQGLEWMGWINTYTGEPTYADDFKDRVTMTTDTSTSTAYMELRSLRSDDTAVYYCARRYGYDAGIDAWGQGTLVTVSS
VL: EIVLTQSPGTLSLSPGERATLSCRASESVDSYGNNLMHWYQQKPGQAPRLLIYLASYLESGVPDRFSGSGSGTDFTLTISRLEPEDFATYYCQQNNESPWTFGQGTKVEIK

IC50 (nM), luciferase reporter gene assay, Mouse GFRAL/mouse RET [4]: 0.1 nM | IC50 (nM), luciferase reporter gene assay, Human GFRAL/human RET [5]: 5.7 nM
B13: 26D7H4aL4a (antibody, V domains shown)
VH: QIQLVQSGAEVKKPGASVKISCKVSGYTFTDYGMNWVRQTPGQGLKWVGWINTYTGEPTYADDFKDRFTFTLDASTSTAYLEIRSLRSDDTAVYFCARRYGYDAGIDAWGQGTLLTVSS
VL: B12 VL with L13V, L21I, D64A, G72R, L82V, V108L

IC50 (nM), luciferase reporter gene assay, Mouse GFRAL/mouse RET [4]: 3 nM | IC50 (nM), luciferase reporter gene assay, Human GFRAL/human RET [5]: 6.5 nM
B14: 26D7H2dL2a (antibody, V domains shown)
VH: B12 VH with V20I, E46K, M70F, T72L, T74A
VL: B12 VL

IC50 (nM), luciferase reporter gene assay, Mouse GFRAL/mouse RET [4]: 1.6 nM | IC50 (nM), luciferase reporter gene assay, Human GFRAL/human RET [5]: 7.6 nM
B15: 26D7H2aL2a (antibody, V domains shown)
VH: B12 VH with A24V, M48V, V68F, M70F, T72L, Y95F
VL: B12 VL

IC50 (nM), luciferase reporter gene assay, Mouse GFRAL/mouse RET [1]: 75.5 nM | IC50 (nM), luciferase reporter gene assay, Human GFRAL/human RET [2]: 81.4 nM
B16: 90E1 (antibody, V domains shown)
VH: EVQLQQSGPELVKPGASVKMSCKASGYTFTSYVIHWVKQEPGQGLEWIGYINPYNDDINYNEKFKGKATLTSDKSSSTAYMEFSSLTSEDSAVYYCARYDYDWYFDVWGAGTAVTVSS
VL: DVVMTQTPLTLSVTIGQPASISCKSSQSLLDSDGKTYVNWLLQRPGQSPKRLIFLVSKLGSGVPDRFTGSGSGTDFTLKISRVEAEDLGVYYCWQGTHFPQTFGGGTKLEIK
